Source: patent US20210261685A1 (Alector, published 2021)

T1: human MerTK endogenously expressed on cells (SK-MEL-5 cells; human macrophages) (human, UniProt Q12866 21-999)
T1 sequence: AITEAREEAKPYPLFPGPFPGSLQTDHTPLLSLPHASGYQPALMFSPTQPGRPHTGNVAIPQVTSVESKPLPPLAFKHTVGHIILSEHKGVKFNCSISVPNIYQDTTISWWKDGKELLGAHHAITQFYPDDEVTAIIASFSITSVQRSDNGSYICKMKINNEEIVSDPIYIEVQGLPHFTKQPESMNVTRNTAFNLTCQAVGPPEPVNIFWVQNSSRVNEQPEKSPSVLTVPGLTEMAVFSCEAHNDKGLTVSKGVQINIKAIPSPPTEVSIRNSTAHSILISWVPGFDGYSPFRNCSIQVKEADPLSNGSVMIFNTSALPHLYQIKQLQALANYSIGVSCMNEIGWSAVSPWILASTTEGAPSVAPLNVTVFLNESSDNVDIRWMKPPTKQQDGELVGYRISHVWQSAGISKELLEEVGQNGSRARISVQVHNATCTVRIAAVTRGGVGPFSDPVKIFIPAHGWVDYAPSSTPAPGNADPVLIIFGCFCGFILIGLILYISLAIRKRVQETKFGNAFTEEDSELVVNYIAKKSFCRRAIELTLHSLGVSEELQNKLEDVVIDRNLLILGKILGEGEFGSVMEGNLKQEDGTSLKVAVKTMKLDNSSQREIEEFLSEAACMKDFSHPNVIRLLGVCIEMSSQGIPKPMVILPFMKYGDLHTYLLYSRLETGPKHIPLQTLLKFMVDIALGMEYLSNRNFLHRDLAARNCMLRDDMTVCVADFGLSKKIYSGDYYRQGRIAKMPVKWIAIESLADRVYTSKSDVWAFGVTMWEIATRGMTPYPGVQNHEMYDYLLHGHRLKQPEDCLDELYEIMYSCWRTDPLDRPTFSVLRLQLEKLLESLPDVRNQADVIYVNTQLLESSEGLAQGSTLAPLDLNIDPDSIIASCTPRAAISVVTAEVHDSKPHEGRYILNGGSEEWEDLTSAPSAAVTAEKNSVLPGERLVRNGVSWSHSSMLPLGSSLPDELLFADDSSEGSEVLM

T2: Recombinant human MerTK human Fc Chimera protein (R&D systems, Cat #391-MR-100) (human, UniProt Q12866 26-499, limits assumed)
T2 construct: Bought; also called recombinant human MerTK protein; MerTK-Fc
T2 sequence: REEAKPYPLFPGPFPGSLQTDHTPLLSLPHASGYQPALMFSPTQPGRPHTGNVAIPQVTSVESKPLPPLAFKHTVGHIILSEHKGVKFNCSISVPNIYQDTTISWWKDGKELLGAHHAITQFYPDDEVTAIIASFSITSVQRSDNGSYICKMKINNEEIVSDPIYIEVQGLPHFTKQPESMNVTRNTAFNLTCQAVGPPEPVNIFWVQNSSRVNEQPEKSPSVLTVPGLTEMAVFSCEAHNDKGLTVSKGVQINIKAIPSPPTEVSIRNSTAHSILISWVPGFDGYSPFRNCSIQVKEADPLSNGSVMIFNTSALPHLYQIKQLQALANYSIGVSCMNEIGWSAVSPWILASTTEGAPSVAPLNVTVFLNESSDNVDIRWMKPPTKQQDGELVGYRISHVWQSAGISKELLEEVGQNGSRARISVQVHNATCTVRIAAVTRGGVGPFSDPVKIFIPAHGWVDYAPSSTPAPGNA


How the values were obtained:
[1] = target: T1, human MerTK endogenously expressed on …; assay: cell-based or functional assay
[2] = target: T2, Recombinant human MerTK human Fc …; assay: competition ELISA, His-Gas6 on captured MerTK-Fc
Procedure: Rabbit anti-human IgG polyclonal antibody (Jackson ImmunoResearch, Cat #309-005-008) was captured to a high-protein binding plate at 2 μg/ml 4° C. overnight. After washing with 0.05% Tween20 in PBS three times, 5% BSA in PBS was added for 1 hour. Recombinant human MerTK human Fc Chimera protein (R&D systems, Cat #391-MR-100) was added at 2 μg/ml for 1 hour and the plates were then washed. Anti-MerTK antibodies were titrated to final concentration range of between 66.6 nM to 4 pM and then 40 μl of serially diluted antibody and 40 μl of His tag-conjugated recombinant Gas6 protein (R&D systems, Cat #885-GSB-050) at 3 μg/ml or His tag-conjugated recombinant ProS protein (R&D systems, Cat #9489-PS-100) at 20 μg/ml. After a further incubation for 1 hour, plates were washed and incubated for 1 hour with HRP-conjugated anti-6×His tag antibody (Abcam, Cat #ab1187). Plates were then washed and an HRP substrate (TMB) was used to develop the plates. After sufficient color change was observed, the reaction was stopped by adding 50 μl 2N H₂SO₄ and the OD was measured using a spectrophotometer (BioTek).
From these experiments, IC50 values [nM] were determined using OD450 values obtained from the dose-response curves analyzed with Prism software. Table 14 and Table 15 show IC50 values determined for anti-MerTK antibody blocking of Gas6 ligand binding and ProS ligand binding to MerTK. […] Dashes indicate lack of significant blocking; “n.a.” indicates data not available.

| Binder | Gas6-mediated pAKT activity, average IC50, human M2c macrophages [1] | IC50 [2] |
| --- | --- | --- |
| MTK-21 (antibody, human IgG1, V domains shown) VH: QIQLVQSGPELKKPGETVKISCKASGYTFTNFGMTWVRQAPGMDLKWMGWINTYTGEPKYADDFKGRFALSLETSASTAYLQITNFKNEDTATYFCARGGGRLGLRPLDYWGQGTTLTVSS VL: DIQMTQTTSSLSASLGDRVTISCRASQDINNYLNWYQQKPDGTVKLLIYYTSSLHSGVPSRFSGSGSGTDYSLTITNLEQEDIATYFCQQGNTLPWTFGGGTRLEIK | – | 5.98 nM |
| MTK-01 (antibody, human IgG1, V domains shown) VH: QIQLVQSGPELKKPGETVKISCKASGYTFTNYGMNWVKQAPGKGLKCMGWINTYTGEPTYADDFKGRFAFSLETSATTAYLQINNLKNEDTATYFCARRDRYTWFAYWGQGTLVTVSA VL: QIVLSQSPAILSASPGEKVTMTCRASSSVSYMHWYQQKPGSSPKPWIYATSNLASGVPARFSGSGSGTSYSLTISRVEAEDAATYYCQQWSSNPPTFGGGTKLEIK | 1.28 nM | – |
| MTK-05 (antibody, human IgG1, V domains shown) VH: QVQLQQSGAELVQPGTSVRLSCKTSGYTFTSYWIQWVKQRPGQGLGWIGEIFPGTGTTYYNEKFKGKATLTIDTSSSTAYMQLSSLTSEDSAVYFCARDGAYFDVWGAGTTVTVSS VL: DIQMTQSPASLSASVGETVTFTCRASENIFSYLAWYQQKQGKSPQLLVYNAKTLAEGVPSRFSGSGSGTHFSLKINSLQPEDFGSYYCLHHYGTPLTFGAGTKLELK | 0.246 nM | – |
| MTK-10 (antibody, human IgG1, V domains shown) VH: QVTLKESGPGILQPSQTLSLTCSFSGFSLTTSGMGVGWIRQPSGKGLEWLAHIWSDDDKRSNPALKSRLTISQDSSTNQVFLKIASVDTADSATYYCSHLTPVREFAYWGPGTLVTVSE VL: DIQMTQTTSSLSASLGDRVTISCSASQGISNYLNWFQQKPDGTVKLLIYYTSRLHSGVPSRFSGSGSGTDFSLTISNLEPEDIATYYCQQYTKLPYTFGGGTKLEIK | – | 32.4 nM |
| MTK-19 (antibody, human IgG1, V domains shown) VH: EVQLQQSGPELVKPGASVKISCKTSGYTFTEYTMHWVKQSHGKSLEWLGGFNPNNVITSYNQRFQGRATLTVDKSSSTAYMELRSLTSDDSAVYYCTRGDLLWSLLLPGNYFDYWGQGTTLTVSS VL: not shown | 0.902 nM | – |
| MTK-13 (antibody, human IgG1, V domains shown) VH: DVQLQESGPGLVKPSQSLSLTCSVTGYSITSGYYWNWIRQFPGNKLEWMGNIDYDGSNKYNPSLKNRISITRDTSKNHFFLKLNSVTPEDTATYFCARDGGNYRSFAYWGQGTLVTVSA VL: QIVLTQSPPIMSASPGEKVTITCSASSSVSYMYWFQQKPGTSPKLWIYSTFNLASGVPARFSGSGSGTSYSLTISRMEAEDVATYYCQQRSSYPFTFGSGTKLEIK | – | 18.9 nM |

Second part, the binder after the results:

| Gas6-mediated pAKT activity, average IC50, human M2c macrophages [1] | IC50 [2] | Binder |
| --- | --- | --- |
| 4.28 nM | – | MTK-33 (antibody, human IgG1, V domains shown) VH: QVQLQQPGPELVRPGTSVKLSCKASGYTFTSYWMHWIKQRPGQGLEWIGVIDPSDNYINYNQKFKGKATLTVDTSSSTAYLQLSSLTSEDSAVYYCAREAGTRGYFDYWGQGTTLTVSS VL: SIVMTQTPKFLLVSAGDRVIITCKASQSVSNTVAWYQQKPGQSPKLLIYYASNRYTGVPDRFTGSGYGTDFTFTISTVQAEDLAVYFCQQDYRSPFTFGSGTQLEMK |
| – | 1.26 nM | MTK-30 (antibody, human IgG1, V domains shown) VH: QVQLQQPGTELVRPGASVKLSCKASGYTFTSYWMHWVKQRPGQGLEWIGNLNPNNGGTYYNEKFKSKATLTVDKSSSTAYMQLSSLTSEDSAVYYCARQILLYFDYWGQGTTLTVSS VL: DVLMTQTPLSLPVSLGDQASISCRSSQSIVHSNGDTYLEWYLQKPGQSPKLLIYKVSNRFSGVPDRFSGSGSGTDFTLKISRVEAEDLGVYYCFQGSHVPWTFGGGTKLEIK |
| – | 1.29 nM | MTK-31 (antibody, human IgG1, V domains shown) VH: QIQLVQSGPELKKSGETVKISCKASGYTFTSYGMSWVKQAPGKGLKWMGWINTYSGVPTYADDFKGRFAFSLETSASTAYLQINNLKNEDTATYFCASLSYDGSLYHAMDYWGQGTSVTVSS VL: DVSMTQTPLSLPVSLGDQASISSRSSQTIVHSNGNTYLEWYLQKPGQSPKLLIYKVSNRFSGVPDRFSGSGSGTDFTLKISRVEAEDLGVYYCFQGSHVPWTFGGGTKLEIK |
| 5.37 nM | – | MTK-29 (antibody, human IgG1, V domains shown) VH: QIQLVQSGPELKKPGETVKISCKSSGFTFTTYGMSWVKQAPGKGLKWMGWINTYSGVPTYTDDFKGRFAFSLETSASTASLQINNLKNEDTATYFCARYTNYGYFDYWGQGTTLTVSS VL: QIVLSQSPAILSASPGEKVTMTCRATSSVGYMHWYQQKPGSSPKPWIYATSNLASGVPARFSGSGSGTSYSLTISRVEAEHAATYYCQQWGSNPFTFGSGTKLEIK |
| – | 0.29 nM | MTK-36 (antibody, human IgG1, V domains shown) VH: QVTLKESGPGILQPSQTLSLTCSFSGFSLSTFGMGVGWIRQPSGKGLEWLAHIWWYDDKYYEPALKSRLTISKDSSKNQVFLKIANVDTADTATYYCARIYYGTSYRYFDVWGTGTTVTVSS VL: QIVLSQSPAILSAFPGEKVTMTCRATSSVRYMHWYQQKPGSSPKPWIYATYNLTSGVPARFSGSGSGTSYSLTISRVEAEDAATYYCHQWSSNPYTFGGGTKLEIK |
| – | 1.42 nM | MTK-27 (antibody, human IgG1, V domains shown) VH: EVQLQQSGTELVRPGASVKLSCTASGFNIKDDYMHWVQQRPEQGLEWIGWIDPENGNTEYASKFQGKATITADASSNTAYLQLSSLTSEDTAVYYCSTLFSNYFDYWGQGTTLTVSS VL: DIVMTQSQKFMSTSVGDRVSITCKASQNVRTSVAWYQQKPGQSPKALIYLASNRHTGVPDRFTGSGSGTDFTLTISNVRSEDLADYFCLQHWNYPYTFGGGTKLEIK |
| – | 0.31 nM | MTK-35 (antibody, human IgG1, V domains shown) VH: QVLLQQSGPELVKPGASVQLSCKASDYTFTSYDIHWVKQRPGQGLEWIGWIYPRDGYTKYNEIFKGKATLTVDTSSTTAYMELHSLTSEDSAVYFCARAYYTNWYYFDYWGQGTTLTVSS VL: EIVLTQSPTTMAASPGEKITITCRASSSISSHYLHWYQQKPGFSPKLLIYRTSNLASGVPARFSGSGSGTSYSLTIGTMEAEDVATYYCQQGSTIPLTFGAGTKLVLK |
| – | 0.74 nM | MTK-24 (antibody, human IgG1, V domains shown) VH: QVQLQQPGAELVKPGASVKLSCKASGYTFTSYWMHWVKQRPGQGLEWIGMIHPNINTNYNEKFKSKATLTVDISSSTAYMQLSSLTSEDSAVYYCAKRSPYSNYDWYFDVWGTGTTVTVSS VL: DIQMTQSPASLSVSVGETVTITCRASENIYSNLAWYQQKQGKSPQLLVYAATNLADGVPSRFSGSGSGTQYSLKINSLQSEDFGSYYCQHFWGTPLTFGAGTKLELK |
| – | 2.93 nM | MTK-26 (antibody, human IgG1, V domains shown) VH: AVQFQESGPGLVKLSQSLSLTCSVTGYSITSGYYWDWIRQFPGNKLEWMGYISYDGSNNYNPSLKNRISITRDTSKNQFFLKLNSVTTEDTATYYCAREGGYYRSMDYWGQGTSVTVSS VL: QIVLTQSPAIMSASPGEKVTIACSASSSVSFMHWFQQKPGTSPRLWIYSTSNLASGVPARFSGSGSGTSYSLTISRMEAEDAATYYCQQRSSYPFTFGSGTKLEIK |
